# Reference: IntAct's records for PubMed 23260655
# B1: Chromobox protein homolog 8 (Homo sapiens), Q9HC52 (parent)
# chain: MELSAVGERVFAAEALLKRRIRKGRMEYLVKWKGWSQKYSTWEPEENILDARLLAAFEEREREMELYGPKKRGPKPKTFLLKAQAKAKAKTYEFRSDSARGIRIPYPGRSPQDLASTSRAREGLRNMGLSPPASSTSTSSTCRAEAPRDRDRDRDRDRERDRERERERERERERERERERGTSRVDDKPSSPGDSSKKRGPKPRKELPDPSQRPLGEPSAGLGEYLKGRKLDDTPSGAGKFPAGHSVIQLARRQDSDLVQCGVTSPSSAEATGKLAVDTFPARVIKHRAAFLEAKGQGALDPNGTRVRHGSGPPSSGGGLYRDMGAQGGRPSLIARIPVARILGDPEEESWSPSLTNLEKVVVTDVTSNFLTVTIKESNTDQGFFKEKR
# Variants of: B1
# Conditions: with af9_mouse Mllt3, A2AM29
# Chain of af9_mouse Mllt3, A2AM29 (A2AM29 whole entry): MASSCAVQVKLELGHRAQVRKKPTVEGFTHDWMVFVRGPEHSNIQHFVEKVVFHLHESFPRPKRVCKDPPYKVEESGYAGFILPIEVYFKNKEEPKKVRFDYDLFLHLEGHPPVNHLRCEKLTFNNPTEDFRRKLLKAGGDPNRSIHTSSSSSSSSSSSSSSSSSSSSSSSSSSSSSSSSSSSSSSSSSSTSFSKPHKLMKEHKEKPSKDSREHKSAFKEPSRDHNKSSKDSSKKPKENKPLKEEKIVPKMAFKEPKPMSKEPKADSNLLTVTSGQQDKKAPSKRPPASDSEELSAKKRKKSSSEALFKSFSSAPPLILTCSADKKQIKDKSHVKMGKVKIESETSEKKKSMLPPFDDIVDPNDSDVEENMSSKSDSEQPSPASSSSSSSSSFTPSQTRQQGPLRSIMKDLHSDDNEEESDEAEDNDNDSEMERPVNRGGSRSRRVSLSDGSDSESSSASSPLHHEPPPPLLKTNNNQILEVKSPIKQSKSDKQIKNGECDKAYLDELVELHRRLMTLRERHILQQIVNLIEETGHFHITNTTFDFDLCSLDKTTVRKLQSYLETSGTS
row,Variant,effect of a mutation on the interaction
1,A335V,increasing interaction strength
